Patent publication US20190233493A1 (Sanofi, published 2019)
*1 amine or outer side, *2 acyl side, *3 side chain or, on linkers, in order; H or OH if unused. Primed or numbered codes have the meaning given here. Side-chain parts run from the residue outwards. [ ]: non-standard residue; d: D form. The star is where a group is joined. TTDS = 4-[3-[2-[2-(3-aminopropoxy)ethoxy]ethoxy]propylamino]-4-oxo-butanoyl, O=C(CCC(=O)[*:2])NCCCOCCOCCOCCCN[*:1]; PEG8′ = 2-[2-[2-[2-[2-[2-[2-[2-[2-aminoethoxy]ethoxy]ethoxy]ethoxy]ethoxy]ethoxy]ethoxy]ethoxy]ethoxy]propanoyl; TTDS″ = 4-[3-[2-[2-(3-aminopropoxy)ethoxy]ethoxy]propylamino]-4-oxo-butanoyl; TtdDga = O=C(COCC(=O)[*:2])NCCCOCCOCCOCCCN[*:1]; γGlu = O=C(O)[C@H](CCC(=O)[*:2])N[*:1]; Pentadecanoyl = CCCCCCCCCCCCCCC(=O)*; Stearoyl = CCCCCCCCCCCCCCCCCC(=O)*; Palmitoyl = CCCCCCCCCCCCCCCC(=O)*; Myristoyl = CCCCCCCCCCCCCC(=O)*; αMeK = C[C@](N)(CCCCN)C(=O)O; Nle = CCCC[C@H](N)C(=O)O; PEG2′ = PEG2 spacer unit; Aib = CC(C)(N)C(=O)O

T1: RXFP1 receptor (UniProt Q9HBX9 1-757, limits assumed)
T1 sequence (looked up): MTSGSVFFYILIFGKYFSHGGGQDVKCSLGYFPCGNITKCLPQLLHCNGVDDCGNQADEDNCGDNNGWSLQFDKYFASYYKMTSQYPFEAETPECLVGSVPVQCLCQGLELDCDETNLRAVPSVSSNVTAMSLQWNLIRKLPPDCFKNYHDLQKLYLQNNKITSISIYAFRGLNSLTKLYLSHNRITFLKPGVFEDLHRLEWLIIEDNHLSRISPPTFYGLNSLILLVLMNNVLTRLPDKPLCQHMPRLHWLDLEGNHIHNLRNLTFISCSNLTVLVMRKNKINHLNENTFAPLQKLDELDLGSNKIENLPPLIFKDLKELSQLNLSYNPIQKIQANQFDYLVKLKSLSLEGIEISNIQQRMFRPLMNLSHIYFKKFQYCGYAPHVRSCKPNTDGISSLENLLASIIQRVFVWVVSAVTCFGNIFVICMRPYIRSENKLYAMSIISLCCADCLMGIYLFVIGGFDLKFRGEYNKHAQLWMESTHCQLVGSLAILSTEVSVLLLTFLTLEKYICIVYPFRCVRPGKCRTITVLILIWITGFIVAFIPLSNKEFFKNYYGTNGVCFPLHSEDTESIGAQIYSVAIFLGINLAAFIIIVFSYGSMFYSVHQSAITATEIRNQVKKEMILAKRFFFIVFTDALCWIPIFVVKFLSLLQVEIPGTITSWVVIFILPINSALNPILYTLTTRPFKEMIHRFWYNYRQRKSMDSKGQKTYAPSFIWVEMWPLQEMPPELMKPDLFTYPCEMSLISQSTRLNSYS

B1: peptide of SEQ ID NO: 176 (peptide)
peptide: Ac-LEGREKVRAK(Ac)I[Aib][Aib]EGQSTWS[Aib]RKK(Ac)[TtdDga]K([γGlu-γGlu-γGlu-Palmitoyl])-NH2
SMILES: CCCCCCCCCCCCCCCC(=O)N[C@@H](CCC(=O)N[C@@H](CCC(=O)N[C@@H](CCC(=O)NCCCC[C@H](NC(=O)COCC(=O)NCCCOCCOCCOCCCNC(=O)[C@H](CCCCNC(C)=O)NC(=O)[C@H](CCCCN)NC(=O)[C@H](CCCNC(=N)N)NC(=O)C(C)(C)NC(=O)[C@H](CO)NC(=O)[C@H](Cc1c[nH]c2ccccc12)NC(=O)[C@@H](NC(=O)[C@H](CO)NC(=O)[C@H](CCC(N)=O)NC(=O)CNC(=O)[C@H](CCC(=O)O)NC(=O)C(C)(C)NC(=O)C(C)(C)NC(=O)[C@@H](NC(=O)[C@H](CCCCNC(C)=O)NC(=O)[C@H](C)NC(=O)[C@H](CCCNC(=N)N)NC(=O)[C@@H](NC(=O)[C@H](CCCCN)NC(=O)[C@H](CCC(=O)O)NC(=O)[C@H](CCCNC(=N)N)NC(=O)CNC(=O)[C@H](CCC(=O)O)NC(=O)[C@H](CC(C)C)NC(C)=O)C(C)C)[C@@H](C)CC)[C@@H](C)O)C(N)=O)C(=O)O)C(=O)O)C(=O)O
B2: peptide of SEQ ID NO: 187 (peptide)
peptide: Ac-LEGREKVRAK(Ac)I[Aib][Aib]EG[Nle]STFS[αMeK]RAK(Ac)[TTDS][TTDS][TTDS]K([γGlu-γGlu-γGlu-Palmitoyl])-NH2
SMILES: CCCCCCCCCCCCCCCC(=O)N[C@@H](CCC(=O)N[C@@H](CCC(=O)N[C@@H](CCC(=O)NCCCC[C@H](NC(=O)CCC(=O)NCCCOCCOCCOCCCNC(=O)CCC(=O)NCCCOCCOCCOCCCNC(=O)CCC(=O)NCCCOCCOCCOCCCNC(=O)[C@H](CCCCNC(C)=O)NC(=O)[C@H](C)NC(=O)[C@H](CCCNC(=N)N)NC(=O)[C@](C)(CCCCN)NC(=O)[C@H](CO)NC(=O)[C@H](Cc1ccccc1)NC(=O)[C@@H](NC(=O)[C@H](CO)NC(=O)[C@H](CCCC)NC(=O)CNC(=O)[C@H](CCC(=O)O)NC(=O)C(C)(C)NC(=O)C(C)(C)NC(=O)[C@@H](NC(=O)[C@H](CCCCNC(C)=O)NC(=O)[C@H](C)NC(=O)[C@H](CCCNC(=N)N)NC(=O)[C@@H](NC(=O)[C@H](CCCCN)NC(=O)[C@H](CCC(=O)O)NC(=O)[C@H](CCCNC(=N)N)NC(=O)CNC(=O)[C@H](CCC(=O)O)NC(=O)[C@H](CC(C)C)NC(C)=O)C(C)C)[C@@H](C)CC)[C@@H](C)O)C(N)=O)C(=O)O)C(=O)O)C(=O)O
B3: peptide of SEQ ID NO: 18 (peptide)
peptide: Ac-LEGREKVRAK(Ac)I[Aib][Aib]EG[Nle]STWS[Aib]RKK(Ac)[TtdDga]K([γGlu-γGlu-γGlu-Stearoyl])-NH2
SMILES: CCCCCCCCCCCCCCCCCC(=O)N[C@@H](CCC(=O)N[C@@H](CCC(=O)N[C@@H](CCC(=O)NCCCC[C@H](NC(=O)COCC(=O)NCCCOCCOCCOCCCNC(=O)[C@H](CCCCNC(C)=O)NC(=O)[C@H](CCCCN)NC(=O)[C@H](CCCNC(=N)N)NC(=O)C(C)(C)NC(=O)[C@H](CO)NC(=O)[C@H](Cc1c[nH]c2ccccc12)NC(=O)[C@@H](NC(=O)[C@H](CO)NC(=O)[C@H](CCCC)NC(=O)CNC(=O)[C@H](CCC(=O)O)NC(=O)C(C)(C)NC(=O)C(C)(C)NC(=O)[C@@H](NC(=O)[C@H](CCCCNC(C)=O)NC(=O)[C@H](C)NC(=O)[C@H](CCCNC(=N)N)NC(=O)[C@@H](NC(=O)[C@H](CCCCN)NC(=O)[C@H](CCC(=O)O)NC(=O)[C@H](CCCNC(=N)N)NC(=O)CNC(=O)[C@H](CCC(=O)O)NC(=O)[C@H](CC(C)C)NC(C)=O)C(C)C)[C@@H](C)CC)[C@@H](C)O)C(N)=O)C(=O)O)C(=O)O)C(=O)O
B4: peptide of SEQ ID NO: 19 (peptide)
peptide: Ac-LEGREKVRAK(Ac)I[Aib][Aib]EG[Nle]STWS[Aib]RKK(Ac)[TtdDga][TtdDga]K([γGlu-γGlu-γGlu-Stearoyl])-NH2
SMILES: CCCCCCCCCCCCCCCCCC(=O)N[C@@H](CCC(=O)N[C@@H](CCC(=O)N[C@@H](CCC(=O)NCCCC[C@H](NC(=O)COCC(=O)NCCCOCCOCCOCCCNC(=O)COCC(=O)NCCCOCCOCCOCCCNC(=O)[C@H](CCCCNC(C)=O)NC(=O)[C@H](CCCCN)NC(=O)[C@H](CCCNC(=N)N)NC(=O)C(C)(C)NC(=O)[C@H](CO)NC(=O)[C@H](Cc1c[nH]c2ccccc12)NC(=O)[C@@H](NC(=O)[C@H](CO)NC(=O)[C@H](CCCC)NC(=O)CNC(=O)[C@H](CCC(=O)O)NC(=O)C(C)(C)NC(=O)C(C)(C)NC(=O)[C@@H](NC(=O)[C@H](CCCCNC(C)=O)NC(=O)[C@H](C)NC(=O)[C@H](CCCNC(=N)N)NC(=O)[C@@H](NC(=O)[C@H](CCCCN)NC(=O)[C@H](CCC(=O)O)NC(=O)[C@H](CCCNC(=N)N)NC(=O)CNC(=O)[C@H](CCC(=O)O)NC(=O)[C@H](CC(C)C)NC(C)=O)C(C)C)[C@@H](C)CC)[C@@H](C)O)C(N)=O)C(=O)O)C(=O)O)C(=O)O
B5: peptide of SEQ ID NO: 177 (peptide)
peptide: Ac-LEGREKVRAQI[Aib][Aib]EGQSTWS[Aib]RKK(Ac)[TtdDga][TtdDga]K([γGlu-γGlu-γGlu-Palmitoyl])-NH2
SMILES: CCCCCCCCCCCCCCCC(=O)N[C@@H](CCC(=O)N[C@@H](CCC(=O)N[C@@H](CCC(=O)NCCCC[C@H](NC(=O)COCC(=O)NCCCOCCOCCOCCCNC(=O)COCC(=O)NCCCOCCOCCOCCCNC(=O)[C@H](CCCCNC(C)=O)NC(=O)[C@H](CCCCN)NC(=O)[C@H](CCCNC(=N)N)NC(=O)C(C)(C)NC(=O)[C@H](CO)NC(=O)[C@H](Cc1c[nH]c2ccccc12)NC(=O)[C@@H](NC(=O)[C@H](CO)NC(=O)[C@H](CCC(N)=O)NC(=O)CNC(=O)[C@H](CCC(=O)O)NC(=O)C(C)(C)NC(=O)C(C)(C)NC(=O)[C@@H](NC(=O)[C@H](CCC(N)=O)NC(=O)[C@H](C)NC(=O)[C@H](CCCNC(=N)N)NC(=O)[C@@H](NC(=O)[C@H](CCCCN)NC(=O)[C@H](CCC(=O)O)NC(=O)[C@H](CCCNC(=N)N)NC(=O)CNC(=O)[C@H](CCC(=O)O)NC(=O)[C@H](CC(C)C)NC(C)=O)C(C)C)[C@@H](C)CC)[C@@H](C)O)C(N)=O)C(=O)O)C(=O)O)C(=O)O

Molecular target: T1, RXFP1 receptor
Experiment: cell-based or functional assay

Binder | EC50 (nM), OVCAR 5 cells (cAMP) [nM] | EMax, OVCAR 5 cells (cAMP) [%]
Ac-LEGREKVRAK(Ac)I[Aib][Aib]EGQSTFS[αMeK]RAK(Ac)[PEG2′][PEG2′][PEG2′][PEG2′][γGlu][γGlu]K([γGlu-γGlu-Pentadecanoyl])-NH2 [peptide of SEQ ID NO: 186] | 0.18 | 100
Ac-LEGREKVRAK(Ac)I[Aib][Aib]EGQSTYS[Aib]RKK(Ac)[PEG2′][PEG2′][PEG2′]K([γGlu-γGlu-γGlu-Palmitoyl])-NH2 [peptide of SEQ ID NO: 179] | 19.9 | 80
B1 | 3 | 90
B2 | 0.33 | 100
B3 | 0.41 | 83
Ac-LEGREKVRAK(Ac)I[Aib][Aib]EG[Nle]STWS[Aib]RKK(Ac)K([PEG2′-PEG2′-PEG2′-γGlu-γGlu-γGlu-Myristoyl])-NH2 [peptide of SEQ ID NO: 178] | 17.6 | 93
Ac-LEGREKVRAK(Ac)I[Aib][Aib]EGQSTWS[Aib]RKK(Ac)K([PEG2′-PEG2′-PEG2′-PEG2′-γGlu-γGlu-γGlu-γGlu-Stearoyl])-NH2 [peptide of SEQ ID NO: 180] | 1.18 | 84
Ac-LEGREKVRAK(Ac)I[Aib][Aib]EG[Nle]STFS[αMeK]RAK(Ac)K([TTDS″-TTDS″-TTDS″-γGlu-γGlu-γGlu-Palmitoyl])-NH2 [peptide of SEQ ID NO: 183] | 0.08 | 94
B4 | 0.15 | 96
Ac-LEGREKVRAK(Ac)I[Aib][Aib]EGQSTFS[αMeK]RAK(Ac)[PEG2′][PEG2′][PEG2′][PEG2′][γGlu][γGlu]K([γGlu-γGlu-Palmitoyl])-NH2 [peptide of SEQ ID NO: 185] | 0.05 | 100
Ac-LEGREKVRAK(Ac)I[Aib][Aib]EGQSTFS[αMeK]RAK(Ac)[PEG2′][PEG2′][PEG2′][PEG2′]K([γGlu-γGlu-γGlu-γGlu-Pentadecanoyl])-NH2 [peptide of SEQ ID NO: 182] | 0.19 | 99
B5 | 1.5 | 91
Ac-LEGREKVRAK(Ac)I[Aib][Aib]EG[Nle]STWS[Aib]RKK(Ac)[PEG8′]K([γGlu-γGlu-γGlu-Palmitoyl])-NH2 [peptide of SEQ ID NO: 181] | 1.63 | 79
